Data published in patent US6525022B1, “Receptor specific atrial natriuretic peptides” (Genentech, Inc., priority 1993, dated 2003).
Where two headings read alike, the source gives them in different places. Bridges are numbered along the chain shown (N, C = ends). Primed or numbered codes have the meaning given here. Where no end group is shown, it is not given here. [ ]: non-standard residue; d: D form. Phg′ = phenylglycine, D or L; Mpa = O=C(O)CCS

T1: human natriuretic peptide receptor-A (human, UniProt P16066 33-1061)
T1 construct: whole, on cells; also called hNPR-A; human NPR-A
T1 sequence (looked up): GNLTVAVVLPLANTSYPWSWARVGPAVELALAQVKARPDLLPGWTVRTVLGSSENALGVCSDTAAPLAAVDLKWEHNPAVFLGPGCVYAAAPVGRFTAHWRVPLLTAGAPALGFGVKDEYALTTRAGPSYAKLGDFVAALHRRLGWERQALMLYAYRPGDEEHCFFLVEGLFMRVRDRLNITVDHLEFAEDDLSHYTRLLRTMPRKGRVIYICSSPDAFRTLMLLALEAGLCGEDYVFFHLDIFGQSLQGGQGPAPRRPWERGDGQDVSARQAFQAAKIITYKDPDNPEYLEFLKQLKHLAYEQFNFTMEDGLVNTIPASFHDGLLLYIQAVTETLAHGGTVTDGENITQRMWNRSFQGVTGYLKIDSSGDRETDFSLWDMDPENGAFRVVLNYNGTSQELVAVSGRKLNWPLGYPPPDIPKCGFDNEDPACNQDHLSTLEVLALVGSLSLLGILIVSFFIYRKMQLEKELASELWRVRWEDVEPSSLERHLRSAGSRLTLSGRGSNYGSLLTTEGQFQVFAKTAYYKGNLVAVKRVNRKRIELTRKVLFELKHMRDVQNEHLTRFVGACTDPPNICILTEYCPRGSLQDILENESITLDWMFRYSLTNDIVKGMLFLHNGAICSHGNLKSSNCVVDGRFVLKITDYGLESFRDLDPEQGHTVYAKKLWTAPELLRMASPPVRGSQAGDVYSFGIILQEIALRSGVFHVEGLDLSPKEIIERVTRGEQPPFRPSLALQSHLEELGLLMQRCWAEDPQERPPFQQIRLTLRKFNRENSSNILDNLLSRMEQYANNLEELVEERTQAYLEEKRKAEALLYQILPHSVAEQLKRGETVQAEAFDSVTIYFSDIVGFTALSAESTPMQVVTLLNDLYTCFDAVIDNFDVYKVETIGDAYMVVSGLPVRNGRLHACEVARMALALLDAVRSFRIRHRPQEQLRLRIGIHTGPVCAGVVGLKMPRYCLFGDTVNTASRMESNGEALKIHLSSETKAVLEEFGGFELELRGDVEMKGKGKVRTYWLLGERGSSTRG

T2: human natriuretic peptide clearance receptor-C (human, UniProt P17342 27-541)
T2 construct: whole, on cells; also called hNPR-C; human NPR-C
T2 sequence (looked up): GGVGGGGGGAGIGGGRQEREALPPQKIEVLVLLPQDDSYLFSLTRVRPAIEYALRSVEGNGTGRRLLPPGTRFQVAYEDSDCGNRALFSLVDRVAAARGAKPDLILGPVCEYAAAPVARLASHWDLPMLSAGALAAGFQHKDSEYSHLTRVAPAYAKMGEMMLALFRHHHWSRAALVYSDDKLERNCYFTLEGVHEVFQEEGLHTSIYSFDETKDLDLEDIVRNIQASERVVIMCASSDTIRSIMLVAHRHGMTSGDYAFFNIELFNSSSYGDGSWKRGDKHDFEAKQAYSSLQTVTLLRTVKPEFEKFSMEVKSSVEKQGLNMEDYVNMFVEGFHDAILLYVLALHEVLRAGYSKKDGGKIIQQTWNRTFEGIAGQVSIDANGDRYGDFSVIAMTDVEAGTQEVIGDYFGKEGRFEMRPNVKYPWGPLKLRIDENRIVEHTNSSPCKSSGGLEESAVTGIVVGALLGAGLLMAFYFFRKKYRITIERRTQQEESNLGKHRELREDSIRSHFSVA

T3: human neutral endopeptidase 24.11 (human), P08473
T3 chain: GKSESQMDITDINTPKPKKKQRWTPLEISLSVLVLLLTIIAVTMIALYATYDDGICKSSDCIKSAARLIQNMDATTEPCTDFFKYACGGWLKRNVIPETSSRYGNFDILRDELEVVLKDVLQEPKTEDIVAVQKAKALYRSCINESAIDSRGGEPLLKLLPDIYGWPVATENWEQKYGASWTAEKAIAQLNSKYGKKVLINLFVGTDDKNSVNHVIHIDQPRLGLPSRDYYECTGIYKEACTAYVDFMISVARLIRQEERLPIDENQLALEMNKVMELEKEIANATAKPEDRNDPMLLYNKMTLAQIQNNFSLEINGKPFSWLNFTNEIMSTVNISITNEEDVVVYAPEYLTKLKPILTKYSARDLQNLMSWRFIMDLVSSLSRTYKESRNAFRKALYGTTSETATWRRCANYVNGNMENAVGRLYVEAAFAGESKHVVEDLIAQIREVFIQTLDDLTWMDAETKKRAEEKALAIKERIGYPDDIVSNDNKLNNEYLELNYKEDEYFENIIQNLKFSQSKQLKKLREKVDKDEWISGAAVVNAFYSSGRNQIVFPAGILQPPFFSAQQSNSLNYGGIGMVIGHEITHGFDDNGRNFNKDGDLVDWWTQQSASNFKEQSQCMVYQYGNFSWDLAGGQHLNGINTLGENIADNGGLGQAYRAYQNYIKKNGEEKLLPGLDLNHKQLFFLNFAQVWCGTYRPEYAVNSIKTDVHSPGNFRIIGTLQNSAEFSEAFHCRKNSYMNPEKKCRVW

T4: human natriuretic peptide receptor-A (human), P16066
T4 chain: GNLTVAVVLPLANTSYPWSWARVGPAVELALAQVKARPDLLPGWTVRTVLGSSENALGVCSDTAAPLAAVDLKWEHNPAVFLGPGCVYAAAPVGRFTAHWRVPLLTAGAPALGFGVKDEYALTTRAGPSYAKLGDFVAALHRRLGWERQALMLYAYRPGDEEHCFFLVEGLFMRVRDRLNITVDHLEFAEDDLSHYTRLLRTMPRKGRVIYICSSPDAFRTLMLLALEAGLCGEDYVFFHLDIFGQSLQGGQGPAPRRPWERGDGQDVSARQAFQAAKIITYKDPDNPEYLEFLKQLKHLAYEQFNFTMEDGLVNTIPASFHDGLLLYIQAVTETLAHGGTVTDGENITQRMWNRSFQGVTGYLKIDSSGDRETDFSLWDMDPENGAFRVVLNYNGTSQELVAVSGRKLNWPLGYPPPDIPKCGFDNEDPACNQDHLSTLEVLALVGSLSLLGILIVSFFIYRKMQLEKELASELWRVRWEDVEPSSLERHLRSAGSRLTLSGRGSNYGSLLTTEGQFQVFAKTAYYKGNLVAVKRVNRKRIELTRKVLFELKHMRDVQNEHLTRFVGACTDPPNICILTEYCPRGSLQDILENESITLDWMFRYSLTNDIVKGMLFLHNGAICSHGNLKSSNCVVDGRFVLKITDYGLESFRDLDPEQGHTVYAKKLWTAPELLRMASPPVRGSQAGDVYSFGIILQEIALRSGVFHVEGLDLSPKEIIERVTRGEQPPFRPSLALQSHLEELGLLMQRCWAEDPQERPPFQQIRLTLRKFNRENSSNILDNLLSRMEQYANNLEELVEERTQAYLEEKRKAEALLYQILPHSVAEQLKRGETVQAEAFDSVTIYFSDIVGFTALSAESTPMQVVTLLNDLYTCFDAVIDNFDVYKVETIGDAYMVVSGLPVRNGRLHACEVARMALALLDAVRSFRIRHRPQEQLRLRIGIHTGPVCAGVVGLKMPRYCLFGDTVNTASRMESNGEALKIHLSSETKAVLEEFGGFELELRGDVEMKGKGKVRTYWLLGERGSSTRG

T5: human natriuretic peptide clearance receptor-C (human), P17342
T5 chain: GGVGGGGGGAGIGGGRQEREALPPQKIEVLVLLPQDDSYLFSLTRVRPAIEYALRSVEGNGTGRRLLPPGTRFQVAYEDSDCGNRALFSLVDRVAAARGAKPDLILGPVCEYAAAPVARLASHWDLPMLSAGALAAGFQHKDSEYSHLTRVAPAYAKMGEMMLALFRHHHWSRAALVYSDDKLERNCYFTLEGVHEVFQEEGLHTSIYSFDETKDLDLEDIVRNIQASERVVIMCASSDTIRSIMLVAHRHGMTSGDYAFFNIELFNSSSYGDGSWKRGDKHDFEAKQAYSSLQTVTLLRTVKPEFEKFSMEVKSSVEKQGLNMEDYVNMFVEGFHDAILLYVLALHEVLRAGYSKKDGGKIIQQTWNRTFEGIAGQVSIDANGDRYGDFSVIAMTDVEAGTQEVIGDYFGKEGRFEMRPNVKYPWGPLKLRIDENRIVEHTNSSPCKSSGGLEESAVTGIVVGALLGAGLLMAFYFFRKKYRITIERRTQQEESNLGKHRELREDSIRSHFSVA


Assays:
[1] = molecular target: T1, human natriuretic peptide receptor-A; experiment: competition binding, Table I; tracer and receptor format not given
[2] = molecular target: T2, human natriuretic peptide clearance …; experiment: as above
[3] = molecular target: T3, human neutral endopeptidase 24.11 …; experiment: cell-based or functional assay
[4] = molecular target: T4, human natriuretic peptide receptor-A …; experiment: competition binding, Table I; tracer and receptor format not given
[5] = molecular target: T6, human neutral endopeptidase 24.11 (human, UniProt P08473 2-750, limits assumed); experiment: cell-based or functional assay
[6] = molecular target: T6, human neutral endopeptidase 24.11; experiment: cell-based or functional assay; remark: listed apart in the source
[7] = molecular target: T5, human natriuretic peptide clearance …; experiment: competition binding, Table I; tracer and receptor format not given
[8] = molecular target: T4, human natriuretic peptide receptor-A …; experiment: competition binding vs 125I-rat ANP, membranes; conditions: chains peptide; modification not given
[9] = molecular target: T5, human natriuretic peptide clearance …; experiment: competition binding, membranes; conditions: chains peptide; modification not given

Binder | IC50 [1] | IC50 [2] | Half-Life [3] | also measured
SLRRSSCF[dA]GDIDRIRAQSGLGCNSFRY (disulfide 7-23, Cys7-Cys23 disulfide; also called hANF(1-28) G9(d-Ala), R11D, M12I, G16R) [ANF 90] | 1.2 nM | 6140 nM | – | –
TAPRSLRRSSCFTGSIDRIRAQSGLGCNSFRY (modifications not checked) [ANF 76] | – | – | 23.5 h | IC50 [4]: 0.0089 nM
TAPRSLRRSSCFGGRIDRIRAQSGLGCNSFRY (disulfide 11-27) [ANF 23] | – | – | – | Half-Life [5]: 12.3 h
TAPRSLRRSSCFGGRMDRIGAQSGLGCNSFRY [urodilatin] | – | – | – | Half-Life [6]: 27.1 h; Half-Life [5]: 31 h
SLRRSSCFAGSIDRIRAQSGLGCNSFRY (modifications not checked) [ANF 78] | – | – | – | IC50 [7]: 8.64 nM
SLRRSSCFGKSMDRIGAQSGLGCNSFRY (modifications not checked) [ANF 60] | – | – | 5.07 h | IC50 [7]: 5.98 nM; IC50 [4]: 0.112 nM
[Mpa]F[dT]GSIDRIRAQSGLGCNSFRY (disulfide 1-17) [ANF 80] | 0.423 nM | 739 nM | – | –
SLRRSSCFGGRIDRIGAQSGLGCNSFRY [rat ANP] | – | – | 2.75 h | IC50 [8]: 0.181 nM; IC50 [9]: 0.145 nM
SLRRSSCFGGRMDRIGAQSGLGCNSFRY (modifications not checked) [hANF(1-28), wild-type human atrial natriuretic factor] | – | – | 2.27 h | –
SLRRSSC[Phg′]TGSIDRIRAQSGLGCNSFRY (disulfide 7-23; also: Phg configuration D or L not given here) [ANF 100-1] | 0.187 nM | 3230 nM | – | –
[Mpa]F[dA]GSIDRIRAQSGLGCNSFRY (disulfide 1-17; not fully specified; printed as Mpa-Phe-(D-Ala)-Gly-Ser-Ile-Asp-Arg-Ile-Arg-Ala-Gln-Ser-Gly-Leu-Gly-Cys-Asn-Ser-Phe-Arg-Tyr) [ANF 81] | 1.4 nM | 3860 nM | – | –
